Data from patent publication US20260069689A1 (Regeneron, published 2026).

Legend:
[1] = target: T1, SARS-CoV2 Spike ecto foldon Trimer expressed with a C-terminal myc-myc-hexahistidine (SARS-CoV-2, UniProt P0DTC2 14-1213); test: SPR Biacore, mAb captured by anti-hFc, 25C
T1 construct: extracellular domain

[2] = target: T1, SARS-CoV2 Spike ecto foldon Trimer …; test: SPR Biacore, mAb captured by anti-hFc, 37C

B1: mAb15162 (antibody, V domains shown)
VH: EVQLVETGGGLIQPGGSLRLSCAASEFIVSRNYMSWVRQAPGKGLEWVSLIYSGGSTYYADSVKGRFTISRDNSKNILYLQMNSLRAEDTAVYYCARDRGGISDYWGQGTLVTVSS
VL: DIQMTQSPSSLSASVGDRVTITCQASQDINKYLNWFQQKPGKAPKLLIYDASNLETGVPSRFSGSGSGTDFTFTISSLQPEDIATYYCQQYDNLPRTFGQGTKLEIKR
Kd [1]: 0.648 nM
koff [1]: 6.79e-05 s⁻¹
kon [1]: 105000 M⁻¹ s⁻¹
t½ [1]: 2.83 h
Kd [2]: 0.425 nM
koff [2]: 0.000187 s⁻¹
kon [2]: 440000 M⁻¹ s⁻¹
t½ [2]: 1.03 h

B2: mAb14285 (antibody, V domains shown)
VH: QVQLVQSGAEVKKPGASVKVSCKASGYTFTGYFIHWVRQAPGQGLEWMGWISPISGGTNYAQKFQGRVTVTRDTSITTAYMELSRLTSDDTAVYHCAREGGTWKGDFDYWGQGTLVTVSS
VL: QSALTQPASVSGSPGQSITISCTGTSSDVESYNLVSWYQQHPGKAPKLMIYEGSKRPSGVSNRFSGSKSGNTASLTISGLQAEDEADYYCSSYAGSSTWVFGGGTKLTVLG
Kd [1]: 0.017 nM
koff [1]: 3.98e-05 s⁻¹
kon [1]: 2.34e+06 M⁻¹ s⁻¹
t½ [1]: 4.84 h
Kd [2]: 0.0359 nM
koff [2]: 4.18e-05 s⁻¹
kon [2]: 1.16e+06 M⁻¹ s⁻¹
t½ [2]: 4.61 h

B3: mAb15164 (antibody, V domains shown)
VH: EVQLVESGGGLVQPGGSLRLSCAASGFAVSSNYMTWVRQAPGKGLEWVATIYSGDSTYYADSVKGRFTISRHNSKNTLSLQMNSLRADDTAIYYCARLSGVLSGTYNGAFDIWGQGTMVTVSS
VL: QSALTQPASVSGSPGQSITISCTGTSSDFGNYNIVSWYQQHPGQAPKVMIYEGNKRPSGVSNRFSGSKSGHTASLTISGLQAEDEADYYCSSYAGSSTWVFGGGTKLTVLG
Kd [1]: 0.0865 nM
koff [1]: 2.58e-05 s⁻¹
kon [1]: 298000 M⁻¹ s⁻¹
t½ [1]: 7.47 h
Kd [2]: 0.0777 nM
koff [2]: 0.000138 s⁻¹
kon [2]: 1.78e+06 M⁻¹ s⁻¹
t½ [2]: 1.4 h

B4: mAb14280 (antibody, V domains shown)
VH: QVQLVQSGAEVKKPGASVRVSCKASGYTFTGNYIHWVRQAPGQGLEWMAWINPNSGGKNYAQKFQGRVTLTRDTSVNTAYMELSRLRSDDTAMYYCARDVNYNILTGPGGLWGQGTLVTVSS
VL: QSALTQPPSASGSPGQSVTISCTGTSSDVGGYNFVSWYQQHPGKAPKLMIYEVSKRPSGVPDRFSGSKSGNTASLTVSGLQAEDEADYYCSSYAGSNNFVFGTGTKVTVLG
Kd [1]: 0.0136 nM
koff [1]: 2.69e-05 s⁻¹
kon [1]: 1.99e+06 M⁻¹ s⁻¹
t½ [1]: 7.14 h
Kd [2]: 0.029 nM
koff [2]: 2.86e-05 s⁻¹
kon [2]: 985000 M⁻¹ s⁻¹
t½ [2]: 6.73 h

B5: mAb15163 (antibody, V domains shown)
VH: EVQLVETGGGLIQPGESLRLSCAASGFIVSTNYMNWVRQAPGKGLEWVSVIYRGGSTYYADSVKGRFTISRDNSKNTLFLQMNSLRAEDTAVYYCARGHEDFDYDTPASGAFDIWGQGTMVTVSS
VL: QSALTQPPSASGSPGQSVTISCTGTSSDVGGHNYVSWYQQHPGKAPKVMIYEVSKRPSGVPDRFSGSKSGNTASLTVSGLQAEDEADYYCSSYAGSNKFVFGTGTKVTVLG
Kd [1]: 0.0562 nM
koff [1]: 1.15e-05 s⁻¹
kon [1]: 214000 M⁻¹ s⁻¹
t½ [1]: 16.7 h
Kd [2]: 0.0364 nM
koff [2]: 4.85e-05 s⁻¹
kon [2]: 1.35e+06 M⁻¹ s⁻¹
t½ [2]: 3.97 h

B6: mAb14234 (antibody, V domains shown)
VH: QVQLVESGGGVVQPGRSLRLSCAASGFTFSSYGIHWVRQAPGKGLEWVAIIWYDGSEKYYADSVKGRFTISRDNSKNTLFLQMNSLEAEDTAVYYCARGPDLLTGYYNYFYYGMDVWGQGTTVTVSS
VL: QSVLTQPPSVSGAPGQRVTISCTGSSSNIGIGYDVHWYQQLPGTVPKLLIYGNTNRPSGVPDRFSGSKSGTSASLAITGLQAEDEADYYCQSYDSSLSSYVFGTGTKVTVLG
Kd [1]: 0.0775 nM
koff [1]: 5.48e-05 s⁻¹
kon [1]: 707000 M⁻¹ s⁻¹
t½ [1]: 3.51 h
Kd [2]: 0.102 nM
koff [2]: 7.16e-05 s⁻¹
kon [2]: 699000 M⁻¹ s⁻¹
t½ [2]: 2.69 h

B7: mAb15160 (antibody, V domains shown)
VH: EVQLVESGGGLVQPGGSLRLSCSASGFTFSRYAMYWVRQAPGKGLEYVSAISSDGGSTYDADSVKGRFTISRANSKNTLYLQMSSLRAEDTAVYYCVKGLRELLYYYYGMDVWGQGTTVTVSS
VL: DIQMTQSPSSLSASVGDRVTITCRAGQSISSFLNWYQQKPGKAPKLLIYAASSLQSGVPSRFSGSGSGTDFTLTISSLQPEDFATYYCQQSYITPFTFGPGTKVDIKR
Kd [1]: 0.102 nM
koff [1]: 3.1e-05 s⁻¹
kon [1]: 304000 M⁻¹ s⁻¹
t½ [1]: 6.21 h
Kd [2]: 0.132 nM
koff [2]: 0.000167 s⁻¹
kon [2]: 1.26e+06 M⁻¹ s⁻¹
t½ [2]: 1.15 h

B8: mAb15161 (antibody, V domains shown)
VH: EVQLVESGGGLVQPGGSLRLSCAASGFTFSSYEMNWVRQAPGKGLEWVSYISSSGSILYYADSVKGRFTASRDNAKNSLYLQMNSLRAEDTGVYYCARREYQLLRPFEFWGQGTLVTVSS
VL: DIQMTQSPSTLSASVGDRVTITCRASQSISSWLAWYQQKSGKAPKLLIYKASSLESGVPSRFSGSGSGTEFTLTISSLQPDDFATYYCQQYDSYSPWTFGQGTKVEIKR
Kd [1]: 0.049 nM
koff [1]: 1.38e-05 s⁻¹
kon [1]: 280000 M⁻¹ s⁻¹
t½ [1]: 14 h
Kd [2]: 0.0616 nM
koff [2]: 9.14e-05 s⁻¹
kon [2]: 1.48e+06 M⁻¹ s⁻¹
t½ [2]: 2.11 h

B9: mAb14232 (antibody, V domains shown)
VH: QITLKESGPTLVKPTQTLTLTCTFSGFSLSASGVGVGWIRQPPGKALEWLALIYWDDDKRYSPSLKSRLTITKDTSKNQVVLTMTNMDPVDTATYYCAQHKVATIFDYWGQGTLVTVSS
VL: QSALTQPPSASGSPGQSVTISCTATSSDVGNYNYVSWYQQHPGKAPKLMIYEVTKRPSGVPDRFSGSKSGNTASLTVSGLQAEDEADYYCSSYAGSWGVFGGGTKLTVLG
Kd [1]: 0.195 nM
koff [1]: 0.000149 s⁻¹
kon [1]: 763000 M⁻¹ s⁻¹
t½ [1]: 1.29 h
Kd [2]: 0.177 nM
koff [2]: 0.000133 s⁻¹
kon [2]: 751000 M⁻¹ s⁻¹
t½ [2]: 1.45 h

B10: mAb14230 (antibody, V domains shown)
VH: EVQLVESGGGLIQPGRSLRLSCAASGFTFDDYAMHWVRQAPGKGLEWVSGISWNSVSIDYADSVKGRFTISRDNAKNSLYLQMTSLTVEDTALYYCAKAFGYETLTGSDYFAYWGPGTLVTVSS
VL: EIVLTQSPGTLSLSPGERATLSCRASQTVISTYLAWYQQKPGQSPRLLIYGASSRATGIPDRFSGSGSGTDFTLTISRLEPEDFAVYYCQQYGSSPQLTFGGGTKVEIKR
Kd [1]: 0.0404 nM
koff [1]: 6.09e-05 s⁻¹
kon [1]: 1.51e+06 M⁻¹ s⁻¹
t½ [1]: 3.16 h
Kd [2]: 0.0991 nM
koff [2]: 8.97e-05 s⁻¹
kon [2]: 906000 M⁻¹ s⁻¹
t½ [2]: 2.14 h

B11: mAb15159 (antibody, V domains shown)
VH: EVQLVESGGGLVQPGGSLRLSCAASGITVSSNYMTWVRQAPGKGLEWVSLIYSGGSTFYADSVRGRFTISRDNSKNTLYLQMNSLRAEDTAVYYCARDLVVYGMDVWGQGTTVTVSS
VL: DIQLTQSPSSLSASVGDRVTITCRASQGISSYLAWYQQKPGKAPKLLIYAASTLQSGVPSRFSGSGSGTDFTLTISSLQPEDFATYYCQHLNSDPHTFGQGTKLEIKR
Kd [1]: 0.231 nM
koff [1]: 2.02e-05 s⁻¹
kon [1]: 87500 M⁻¹ s⁻¹
t½ [1]: 9.53 h
Kd [2]: 0.0686 nM
koff [2]: 3.22e-05 s⁻¹
kon [2]: 467000 M⁻¹ s⁻¹
t½ [2]: 5.99 h

B12: mAb15156 (antibody, V domains shown)
VH: QLQLQESGPGLVKSSETLSLTCTVSASITGSTYYWGWIRQPPGKGLEWIGSIYYSGTTYYKASLKSRVTISVDTSKNQFSLKLTSVTVADTAVYYCVSHLLGNYHKYGMDVWGQGTTVTVSS
VL: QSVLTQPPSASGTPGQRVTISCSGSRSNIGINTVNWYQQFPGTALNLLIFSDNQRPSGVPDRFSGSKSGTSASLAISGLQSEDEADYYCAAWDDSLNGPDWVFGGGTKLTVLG
Kd [1]: 0.193 nM
koff [1]: 6.61e-05 s⁻¹
kon [1]: 342000 M⁻¹ s⁻¹
t½ [1]: 2.91 h
Kd [2]: 0.112 nM
koff [2]: 0.000212 s⁻¹
kon [2]: 1.89e+06 M⁻¹ s⁻¹
t½ [2]: 0.908 h

B13: mAb15158 (antibody, V domains shown)
VH: EVQLVESGGGLVQPGGSLRLSCAASGFSFSSNWMSWVRQAPGKGLEWVGNINQDGSEKYYVDSVEGRFTISRDNAKKSLYLQMNSLRAEDTAVYYCARDLGVLWFGDFVDWGQGALVTVSS
VL: DIQMTQSPSSLSASVGDRVTITCRASQAISNSLAWYQQKPGKAPKLLLYAASTLESGVPSRFSGSGSGTDYTLTISSLQPEDFATYYCLQYYGSPRTFGQGTKVEIKR
Kd [1]: 0.153 nM
koff [1]: 1.4e-05 s⁻¹
kon [1]: 91500 M⁻¹ s⁻¹
t½ [1]: 13.8 h
Kd [2]: 0.0541 nM
koff [2]: 4.07e-05 s⁻¹
kon [2]: 758000 M⁻¹ s⁻¹
t½ [2]: 4.73 h

B14: mAb14256 (antibody, V domains shown)
VH: QVQLQESGPGLVKPSETLSLTCTVSGGSISSHYWSWIRQPPGKGLEWIGYIYYSGSSNYNPSLKSRVTISVDTSKNQFSLKLNSVTAADTAVYYCARHYDILTGFDWFDPWGQGTLVTVSS
VL: QSVLTQPPSVSGAPGQRVTISCTGSSSNIGTHYDVHWYQQLPGTAPKLLIYGNSNRPSGVPDRFSGSKSGTSASLAITGLQAEDEADYYCQSFDNSLTAPYVFGTGTKVTVLG
Kd [1]: 0.129 nM
koff [1]: 0.000189 s⁻¹
kon [1]: 1.47e+06 M⁻¹ s⁻¹
t½ [1]: 1.02 h
Kd [2]: 0.304 nM
koff [2]: 0.000242 s⁻¹
kon [2]: 796000 M⁻¹ s⁻¹
t½ [2]: 0.795 h

B15: mAb15157 (antibody, V domains shown)
VH: EVQLVESGGALVQPGGSLRLSCAASGFPFTIYAMTWVRQAPGKGLEWVSVITGSGDSTYYADSVKGRFTISRDNSKNTLYLQMNSLRAEDTAVYYCVKTGEGFFYYYYGMDVWGQGTTVTVSS
VL: QSVLTQPPSVSAAPGQKVTISCSGSSSNIGNSYISWYQQLPGTAPKLLIYVNNKRPSGIPDRFSGSKSGTSATLGITGLQTGDEADYYCGTWDSSLSAGVFGSGTKVTVLG
Kd [1]: 0.308 nM
koff [1]: 9.28e-05 s⁻¹
kon [1]: 302000 M⁻¹ s⁻¹
t½ [1]: 2.08 h
Kd [2]: 0.141 nM
koff [2]: 0.00024 s⁻¹
kon [2]: 1.7e+06 M⁻¹ s⁻¹
t½ [2]: 0.803 h

B16: mAb14292 (antibody, V domains shown)
VH: EVQLVESGGGLVQPGGSLRLSCVASGFAFSTYEMNWVRQAPGKGLEWVSYISSSGSTIYYADSVKGRLTISRDNVKNSLYLQMNSLRVEDTAIYYCARDAIRNNDILTDPATFDPWGQGTLVTVSS
VL: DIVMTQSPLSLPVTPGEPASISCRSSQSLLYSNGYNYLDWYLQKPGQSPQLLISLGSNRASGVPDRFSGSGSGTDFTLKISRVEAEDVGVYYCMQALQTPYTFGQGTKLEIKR
Kd [1]: 7.21 nM
koff [1]: 0.00421 s⁻¹
kon [1]: 584000 M⁻¹ s⁻¹
t½ [1]: 0.045 h
Kd [2]: 11.5 nM
koff [2]: 0.00682 s⁻¹
kon [2]: 592000 M⁻¹ s⁻¹
t½ [2]: 0.0283 h
